According to paper PMC3483405:

Molecular target: Homo sapiens selenoprotein S U188C (human) (UniProt Q9BQE4)
Assay: SEC

stoichiometry N: 2
Substance: Homo sapiens selenoprotein S U188C (from UniProt Q9BQE4 1-189) (natural protein)
